Measurements published in US20260240831A1, “CANCER STRATIFICATION AND TREATMENT” (Deutsches Krebsforschungszentrum Stiftung des öffentlichen …, priority 2023, published 2026).
Entries after “also recorded” stand apart in the source; their conditions may differ.

Columns and labels:
[1] = system: GBM cells for SFRP1 overexpression; assay: SFRP1 inhibitor treatment of tumour-bearing human brain organoids, KI-67 immunohistochemistry; type: cell-based; details: 25 μM, 2 days, vs DMSO control; SFRP1-overexpressing GBM cells in human brain organoids
Description: Lentivirally transduced GBM cells for SFRP1 overexpression were injected into day 116-old human brain organoids and cultured in brain Organoid Differentiation Medium with Vitamin A. Injected organoids were maintained for 15 days on an orbital shaker (70 RPM) at 5% CO2 and 37° C. After 15 days, organoids were transferred to culturing medium supplemented with 25 μM of SFRP1 inhibitor WAY-316606 or 25 μM DMSO as a control. Tumour-bearing organoids were maintained for 2 more days and then fixed with 4% formaldehyde for 1 hour at 4° C. on a roller. Fixed organoids were first placed in 10% sucrose in PBS until tissues sank, then transferred to 30% sucrose in PBS. Organoids were then embedded in OCT compound (Tissue-Tek). […]
Confocal images of human brain organoids injected with GBM m-Cherry- and sFRP1-expressing cells that were treated with DMSO or sFRP1 inhibitor. Organoids were stained against Ki67 and mCherry and Ki67+/mCherry+ cells were quantified. […] The tumor origin of segmented cells was determined by assessing background corrected mean fluorescence intensities of the 2D integrated mCherry signal. The count of detected Ki67+/mCherry+ cells was then normalized to the imaged organoid volume yielding a density metric representing cycling tumor cells in both WAY inhibitor treated and DMSO control samples.

[2] = system: PDX GBMs; assay: scRNA-seq with ptalign cell states of Wnt-antagonist-overexpressing PDX samples; type: in vivo, mouse; details: for Activation state (ptalign cell state) / tumor Differentiation (ptalign aligned pseudotime) / tumor Quiescence (ptalign cell state, incl. astroQ): PDX vs control Wnt-reporter PDX
Description: For isolation of the xenografted human GBM cells, tumor bearing mouse brains were dissected and single cell suspension was prepared using Brain Tumor Dissociation Kit (P) and gentleMACS Octo Dissociator with Heaters (Miltenyi) according to manufacturer's instructions. mCherry+ cell population was index sorted into 384 well-plates (Eppendorf Lobind). Microplates containing cell lysates were briefly centrifuged, snap frozen on dry ice and were stored at −80° C. Sytox Blue (Life Technologies, 1:1000) was used in all experiments as a dead cell indicator. Index sorting of single cells as well as sorting of bulk samples was carried out using a 100 micron nozzle at a BD FACSAria II or BD FACSAria Fusion at the Flow Cytometry Core Facility at the DKFZ.
Single cell RNA-sequencing libraries from patient-derived xenografts were prepared using Smart-seq3 platform as previously described (Hagemann-Jensen, Nature Biotechnology, 2020) with minor modifications. The protocol was automated and miniaturized by incorporating liquid handling platforms including Mosquito HV (STPLabtech), Mantix (Formulatrix) and Viaflo 384 (Integra). Briefly, plates were incubated at 72° C. for 10 min to facilitate lysis and denaturation of secondary structures in the RNA. Lysed cells were subjected to reverse transcription in 2 μl using Maxima H-minus reverse transcriptase (Thermo Scientific), an oligo(dT) primer and a template-switching oligonucleotide encompassing an 8-bp unique molecular identifier (IDT). In a randomly selected set of wells, we included ERCC Spike-ins (Ambion) at a 1:2500000 dilution. Full length cDNAs were amplified for 22 cycles of PCR using KAPA HiFi DNA polymerase (KAPA Biosystems). cDNA samples were purified with Ampure XP beads at a 1:0.8 ratio and cDNA quality in randomly selected 10 wells/plate was assessed on a High Sensitivity Bioanalyzer chip (Agilent). cDNA concentrations were quantified using Quant-it PicoGreen dsDNA Assay kit (Thermo Scientific) and Synergy LX multi-mode microplate reader (Biotek). cDNAs were normalized to 250-500 pg μl^−1. 100-200 pg of cDNA per sample was used for tagmentation in 1.2 μl using Illumina XT DNA sample preparation kit. Libraries were finally amplified for 11 cycles of PCR in 4 μl using custom-designed Nextera index primers containing 8-bp index barcode sequences with a minimal Levenshtein distance of 4 as previously published (Buenrostro et al., Nature, 2015). Samples were purified with Ampure XP beads at a 1:0.8 ratio and DNA quality in randomly selected 10 wells/plate was assessed on a High Sensitivity Bioanalyzer chip (Agilent). Libraries were quantified as mentioned above and normalized libraries were equimolarly pooled and purified one last time at a 1:0.8 ratio. Prior to sequencing, final library concentration was determined using Qubit dsDNA High Sensitivity Assay kit (Thermo Scientific) and Qubit fluorometer (Invitrogen) and the average fragment size was calculated on a High Sensitivity Bioanalyzer chip (Agilent). Libraries with 1% spiked-in PhiX control (Illumina) were sequenced at the 75-bp paired end on a high output flow cell using an Illumina NextSeq550 instrument at a sequencing depth of ~1 M reads per cell at the sequencing open lab at the DKFZ.
In sequence alignment, the position of one query sequence in a larger reference sequence is ascertained by scoring local sequence similarity until an optimal match is found. We employ a conceptually similar strategy to infer a given query cell's optimal positioning in the space of a reference pseudotime trajectory in a method we call ptalign. The ptalign program requires four central inputs: a query counts table, a reference counts table, a reference pseudotime mapping, and a set of genes capturing the reference pseudotime trajectory. Query cells are then placed along the reference pseudotime according to the dynamic of the correlation of their gene expression along the trajectory genes. […]

[3] = system: PDX GBMs; assay: Survival of mice bearing Wnt-antagonist-overexpressing T6 PDX GBM; type: in vivo, mouse; details: for overall survival: overexpression under TCF/Lef promoter in PDX vs Wnt-reporter controls
Description: We identified the secreted Wnt antagonist SFRP1 as being implicated in the Q-A transition in the healthy SVZ. […] Similarly, [22] reports a role of SFRP1 in regulating the activation of human NSCs, and data from our own lab implicates its most-conserved paralog, SFRP5, in the activation of murine NSCs. Following these evidences and in order to target Wnt-active tumor cells, we cloned human SFRP1 downstream of the TCF/Lef promoter and generated T6 PDA and PDX tumors as outlined previously.
To allow sorting of human GBM cells, cells were infected with the 7TGC (Addgene plasmid #24304) lentiviral vector at a multiplicity of infection (MOI) of 5. Expression of the transduction marker (mCherry) was confirmed by FACS analysis. Second-generation, self-inactivating, replication deficient lentiviral particles were produced, purified and titrated as described previously ([32]).
For ortotopic injection of lentivirally transduced primary GBM cells into the mouse brain, 5×10^5 cells were cultured as single cell suspension overnight. Newly formed spheres were resuspended in 2 μl of Matrigel, loaded into a NanoFil syringe and stereotactically injected into the striatum (2.5 mm lateral to the bregma at a depth of 3.0 mm) of 8-10 week-old Fox Chase SCID-Beige mice under anesthesia. Tumor growth was longitudinally monitored by magnetic resonance imaging at the Small Animal Imaging Center at the DKFZ. Upon reaching termination criteria, mice were sacrificed and brains were collected after transcardial perfusion. For perfusion, mice were anesthetized by intraperitoneal injection of 800 μl of perfusion solution. After opening the thoracic cavity exposing heart, transcardial perfusion was carried out with 10 ml of ice cold HBSS.

[4] = system: T6 PDA; assay: scRNA-seq with ptalign cell states of SFRP1-overexpressing T6 PDA in human cortical organoids; type: cell-based; details: 2-week PDA replicates, compared with PDX (not shown)
Description: For injection of lentivirally transduced primary GBM cells into human brain organoids, 3×10^4 cells were cultured as single cell suspension overnight. Newly formed spheres were resuspended in 1 μl of Differentiation Medium with vitamin A, loaded into a NanoFil syringe and injected into the core of 2 month-old organoids under a dissection microscope. Tumor bearing organoids were maintained in Differentiation Medium with vitamin A on an orbital shaker (70 RPM) for 15 days at 5% CO2 and 37° C.
In sequence alignment, the position of one query sequence in a larger reference sequence is ascertained by scoring local sequence similarity until an optimal match is found. We employ a conceptually similar strategy to infer a given query cell's optimal positioning in the space of a reference pseudotime trajectory in a method we call ptalign. The ptalign program requires four central inputs: a query counts table, a reference counts table, a reference pseudotime mapping, and a set of genes capturing the reference pseudotime trajectory. Query cells are then placed along the reference pseudotime according to the dynamic of the correlation of their gene expression along the trajectory genes. […] The quality of an assigned pseudotime is determined via the computation of a dynamic time warping (DTW) matrix over the pseudotime-binned reference and the equally binned query. […]

[5] = system: PDX GBMs; assay: Tumor IHC morphology of SFRP1-overexpressing PDX; type: in vivo; details: mouse cortex, vs control Wnt-reporter PDX

In the case of `O=S(=O)(NC1CCNCC1)c1cc(S(=O)(=O)c2ccccc2)ccc1C(F)(F)F` [WAY-316606, 5-(phenylsulfonyl)-N-4-piperidinyl-2-(trifluoromethyl)-benzenesulfonamide], the “number of proliferating (KI-67+/mCherry+) tumor cells” value [1] is reported as “drastically increases the number of proliferating cells”.

B1: SFRP1: secreted Wnt antagonist; human SFRP1 cloned downstream of the TCF/Lef promoter, lentivirally overexpressed in GBM cells (protein, UniProt Q8N474 32-314, looked up)
Secreted frizzled-related …: SEYDYVSFQSDIGPYQSGRFYTKPPQCVDIPADLRLCHNVGYKKMVLPNLLEHETMAEVKQQASSWVPLLNKNCHAGTQVFLCSLFAPVCLDRPIYPCRWLCEAVRDSCEPVMQFFGFYWPEMLKCDKFPEGDVCIAMTPPNATEASKPQGTTVCPPCDNELKSEAIIEHLCASEFALRMKIKEVKKENGDKKIVPKKKKPLKLGPIKKKDLKKLVLYLKNGADCPCHQLDNLSHHFLIMGRKVKSQYLLTAIHKWDKKNKEFKNFMKKMKNHECPTFQSVFK
For B1, the cycling cells ([2]; PDX vs control) was “relative increase in cycling cells”, the “Activation state (ptalign cell state)” value [2] was “concomitant reduction in the Activation state” and the “tumor Differentiation (ptalign aligned pseudotime)” value [2] was “without disturbing differentiation; also recorded: not affected”. For the same molecule, the “tumor Quiescence (ptalign cell state, incl. astroQ)” value [2] was “significantly increased quiescence; also recorded: significant increase in tumor Quiescence”, the “survival longer than control, on average” value ([3]; SFRP1 induction in PDX GBMs, before the experiment was terminated) was 1 month and the overall survival [3] was “significant increase in overall survival”. For the same molecule, the overall survival ([3]; listed as sFRP1) was “significantly increased survival”, the “effects on Quiescence, Activation and cycling cells in PDA” value [4] was “consistent yet weaker” and the “tumor cell morphology (IHC)” value [5] was “extensive morphological changes; also recorded: dominant astrocyte-like morphology”.

B2: NOTUM: Wnt antagonist notum polypeptide (Genbank Acc No. NP_848588.3), overexpressed in PDX GBM cells (protein, UniProt Q6P988 20-496, looked up)
Palmitoleoyl-protein …: SEGRKTWRRRGQQPPPPPRTEAAPAAGQPVESFPLDFTAVEGNMDSFMAQVKSLAQSLYPCSAQQLNEDLRLHLLLNTSVTCNDGSPAGYYLKESRGSRRWLLFLEGGWYCFNRENCDSRYDTMRRLMSSRDWPRTRTGTGILSSQPEENPYWWNANMVFIPYCSSDVWSGASSKSEKNEYAFMGALIIQEVVRELLGRGLSGAKVLLLAGSSAGGTGVLLNVDRVAEQLEKLGYPAIQVRGLADSGWFLDNKQYRHTDCVDTITCAPTEAIRRGIRYWNGVVPERCRRQFQEGEEWNCFFGYKVYPTLRCPVFVVQWLFDEAQLTVDNVHLTGQPVQEGLRLYIQNLGRELRHTLKDVPASFAPACLSHEIIIRSHWTDVQVKGTSLPRALHCWDRSLHDSHKASKTPLKGCPVHLVDSCPWPHCNPSCPTVRDQFTGQEMNVAQFLMHMGFDMQTVAQPQGLEPSELLGMLSNGS
For B2, the “Activation state (ptalign cell state)” value [2] was “concomitant reduction in activation”, the “tumor Differentiation (ptalign aligned pseudotime)” value [2] was “without disturbing differentiation” and the “tumor Quiescence (ptalign cell state, incl. astroQ)” value [2] was “significantly increased quiescence”. For the same molecule, the overall survival [3] was “significantly increased survival”.
